# B1: prostaglandin endoperoxide synthase-1 (PGHS-1) (Ovis aries) (protein)
# chain: ADPGAPAPVNPCCYYPCQHQGICVRFGLDRYQCDCTRTGYSGPNCTIPEIWTWLRTTLRPSPSFIHFLLTHGRWLWDFVNATFIRDTLMRLVLTVRSNLIPSPPTYNIAHDYISWESFSNVSYYTRILPSVPRDCPTPMDTKGKKQLPDAEFLSRRFLLRRKFIPDPQSTNLMFAFFAQHFTHQFFKTSGKMGPGFTKALGHGVDLGHIYGDNLERQYQLRLFKDGKLKYQMLNGEVYPPSVEEAPVLMHYPRGIPPQSQMAVGQEVFGLLPGLMLYATIWLREHNRVCDLLKAEHPTWGDEQLFQTARLILIGETIKIVIEEYVQQLSGYFLQLKFDPELLFGAQFQYRNRIAMEFNQLYHWHPLMPDSFRVGPQDYSYEQFLFNTSMLVDYGVEALVDAFSRQPAGRIGGGRNIDHHILHVAVDVIKESRVLRLQPFNEYRKRFGMKPYTSFQELTGEKEMAAELEELYGDIDALEFYPGLLLEKCHPNSIFGESMIEMGAPFSLKGLLGNPICSPEYWKASTFGGEVGFNLVKTATLKKLVCLNTKTCPYVSFHVPDPRQEDRPGVERPPTEL
# B2: prostaglandin endoperoxide synthase-2 (PGHS-2) (Mus musculus) (protein)
# chain: ANPCCSNPCQNRGECMSTGFDQYKCDCTRTGFYGENCTTPEFLTRIKLLLKPTPNTVHYILTHFKGVWNIVNNIPFLRSLIMKYVLTSRSYLIDSPPTYNVHYGYKSWEAFSNLSYYTRALPPVADDCPTPMGVKGNKELPDSKEVLEKVLLRREFIPDPQGSNMMFAFFAQHFTHQFFKTDHKRGPGFTRGLGHGVDLNHIYGETLDRQHKLRLFKDGKLKYQVIGGEVYPPTVKDTQVEMIYPPHIPENLQFAVGQEVFGLVPGLMMYATIWLREHNRVCDILKQEHPEWGDEQLFQTSRLILIGETIKIVIEDYVQHLSGYHFKLKFDPELLFNQQFQYQNRIASEFNTLYHWHPLLPDTFNIEDQEYSFKQFLYNNSILLEHGLTQFVESFTRQIAGRVAGGRNVPIAVQAVAKASIDQSREMKYQSLNEYRKRFSLKPYTSFEELTGEKEMAAELKALYSDIDVMELYPALLVEKPRPDAIFGETMVELGAPFSLKGLMGNPICSPQYWKPSTFGGEVGFKIINTASIQSLICNNVKGCPFTSFNVQDPQPTKTATINASASHSRLDDINPTVLIKRRSTEL
# How the values were obtained:
# purified protein [1] = substrate: CCCCC/C=C\C/C=C\C/C=C\C/C=C\CCCC(=O)Nc1cccc(O)c1; assay: purified protein; conditions: heme
# purified protein [2] = substrate: CCCCC/C=C\C/C=C\C/C=C\C/C=C\CCCC(=O)O; assay: purified protein; conditions: heme
Protein,Km (purified protein [1]),kcat (purified protein [1]),kcat/Km (purified protein [1]),Km (purified protein [2]),kcat (purified protein [2]),kcat/Km (purified protein [2])
B1,15 ± 1 µM,22 ± 1 s⁻¹,1.5e+06 ± 1e+06 M⁻¹ s⁻¹,3.4 ± 0.6 µM,,
B2,,,,2.5 ± 0.4 µM,47 s⁻¹,1.9e+07 M⁻¹ s⁻¹
